Laboratory results from article PMC5505701, “Somatostatin binds to the human amyloid β peptide and favors the formation of distinct oligomers” (eLife, 2017).

B1: Ubiquitin carboxyl-terminal hydrolase L1: human brain protein (protein, UniProt P09936 1-220, looked up)
Ubiquitin carboxyl-terminal …: MQLKPMEINPEMLNKVLSRLGVAGQWRFVDVLGLEEESLGSVPAPACALLLLFPLTAQHENFRKKQIEELKGQEVSPKVYFMKQTIGNSCGTIGLIHAVANNQDKLGFEDGSVLKQFLSETEKMSPEDRAKCFEKNEAIQAAHDAVAQEGQCRVDDKVNFHFILFNNVDGHLYELDGRMPFPVNHGASSEDTLLKDAAKVCREFTEREQGEVRFSAVALC
B2: Peroxiredoxin-6: human brain protein (protein, UniProt P30041 2-224, looked up)
Peroxiredoxin-6: PGGLLLGDVAPNFEANTTVGRIRFHDFLGDSWGILFSHPRDFTPVCTTELGRAAKLAPEFAKRNVKLIALSIDSVEDHLAWSKDINAYNCEEPTEKLPFPIIDDRNRELAILLGMLDPAEKDEKGMPVTARVVFVFGPDKKLKLSILYPATTGRNFDEILRVVISLQLTAEKRVATPVDWKDGDSVMVLPTIPEEEAKKLFPKGVFTKELPSGKKYLRYTPQP
B3: NAD-dependent deacetylase sirtuin-2: human brain protein (protein, UniProt Q8IXJ6 2-389, looked up)
NAD-dependent protein …: AEPDPSHPLETQAGKVQEAQDSDSDSEGGAAGGEADMDFLRNLFSQTLSLGSQKERLLDELTLEGVARYMQSERCRRVICLVGAGISTSAGIPDFRSPSTGLYDNLEKYHLPYPEAIFEISYFKKHPEPFFALAKELYPGQFKPTICHYFMRLLKDKGLLLRCYTQNIDTLERIAGLEQEDLVEAHGTFYTSHCVSASCRHEYPLSWMKEKIFSEVTPKCEDCQSLVKPDIVFFGESLPARFFSCMQSDFLKVDLLLVMGTSLQVQPFASLISKAPLSTPRLLINKEKAGQSDPFLGMIMGLGGGMDFDSKKAYRDVAWLGECDQGCLALAELLGWKKELEDLVRREHASIDAQSGAGVPNPSTSASPKKSPPPAKDEARTTEREKPQ
B4: Phosphoglycerate kinase 1: human brain protein (protein, UniProt P00558 2-417, looked up)
Phosphoglycerate kinase 1: SLSNKLTLDKLDVKGKRVVMRVDFNVPMKNNQITNNQRIKAAVPSIKFCLDNGAKSVVLMSHLGRPDGVPMPDKYSLEPVAVELKSLLGKDVLFLKDCVGPEVEKACANPAAGSVILLENLRFHVEEEGKGKDASGNKVKAEPAKIEAFRASLSKLGDVYVNDAFGTAHRAHSSMVGVNLPQKAGGFLMKKELNYFAKALESPERPFLAILGGAKVADKIQLINNMLDKVNEMIIGGGMAFTFLKVLNNMEIGTSLFDEEGAKIVKDLMSKAEKNGVKITLPVDFVTADKFDENAKTGQATVASGIPAGWMGLDCGPESSKKYAEAVTRAKQIVWNGPVGVFEWEAFARGTKALMDEVVKATSRGCITIIGGGDTATCCAKWNTEDKVSHVSTGGGASLELLEGKVLPGVDALSNI
B5: Medium-chain specific acyl-CoA dehydrogenase: human brain protein (protein, UniProt P11310 26-421, looked up)
Medium-chain specific …: KANRQREPGLGFSFEFTEQQKEFQATARKFAREEIIPVAAEYDKTGEYPVPLIRRAWELGLMNTHIPENCGGLGLGTFDACLISEELAYGCTGVQTAIEGNSLGQMPIIIAGNDQQKKKYLGRMTEEPLMCAYCVTEPGAGSDVAGIKTKAEKKGDEYIINGQKMWITNGGKANWYFLLARSDPDPKAPANKAFTGFIVEADTPGIQIGRKELNMGQRCSDTRGIVFEDVKVPKENVLIGDGAGFKVAMGAFDKTRPVVAAGAVGLAQRALDEATKYALERKTFGKLLVEHQAISFMLAEMAMKVELARMSYQRAAWEVDSGRRNTYYASIAKAFAGDIANQLATDAVQILGGNGFNTEYPVEKLMRDAKIYQIYEGTSQIQRLIVAREHIDKYKN
B6: Peroxiredoxin-2: human brain protein (protein, UniProt P32119 2-198, looked up)
Peroxiredoxin-2: ASGNARIGKPAPDFKATAVVDGAFKEVKLSDYKGKYVVLFFYPLDFTFVCPTEIIAFSNRAEDFRKLGCEVLGVSVDSQFTHLAWINTPRKEGGLGPLNIPLLADVTRRLSEDYGVLKTDEGIAYRGLFIIDGKGVLRQITVNDLPVGRSVDEALRLVQAFQYTDEHGEVCPAGWKPGSDTIKPNVDDSKEYFSKHN
B7: Heat shock protein, 60 kDa, mitochondrial: human brain protein (protein, UniProt P10809 27-573, looked up)
60 kDa heat shock protein, …: AKDVKFGADARALMLQGVDLLADAVAVTMGPKGRTVIIEQSWGSPKVTKDGVTVAKSIDLKDKYKNIGAKLVQDVANNTNEEAGDGTTTATVLARSIAKEGFEKISKGANPVEIRRGVMLAVDAVIAELKKQSKPVTTPEEIAQVATISANGDKEIGNIISDAMKKVGRKGVITVKDGKTLNDELEIIEGMKFDRGYISPYFINTSKGQKCEFQDAYVLLSEKKISSIQSIVPALEIANAHRKPLVIIAEDVDGEALSTLVLNRLKVGLQVVAVKAPGFGDNRKNQLKDMAIATGGAVFGEEGLTLNLEDVQPHDLGKVGEVIVTKDDAMLLKGKGDKAQIEKRIQEIIEQLDVTTSEYEKEKLNERLAKLSDGVAVLKVGGTSDVEVNEKKDRVTDALNATRAAVEEGIVLGGGCALLRCIPALDSLTPANEDQKIGIEIIKRTLKIPAMTIAKNAGVEGSLIVEKIMQSSSEVGYDAMAGDFVNMVEKGIIDPTKVVRTALLDAAGVASLLTTAEVVVTEIPKEEKDPGMGAMGGMGGGMGGGMF
B8: Tubulin beta-3 chain: human brain protein (protein, UniProt Q13509 1-450, looked up)
Tubulin beta-3 chain: MREIVHIQAGQCGNQIGAKFWEVISDEHGIDPSGNYVGDSDLQLERISVYYNEASSHKYVPRAILVDLEPGTMDSVRSGAFGHLFRPDNFIFGQSGAGNNWAKGHYTEGAELVDSVLDVVRKECENCDCLQGFQLTHSLGGGTGSGMGTLLISKVREEYPDRIMNTFSVVPSPKVSDTVVEPYNATLSIHQLVENTDETYCIDNEALYDICFRTLKLATPTYGDLNHLVSATMSGVTTSLRFPGQLNADLRKLAVNMVPFPRLHFFMPGFAPLTARGSQQYRALTVPELTQQMFDAKNMMAACDPRHGRYLTVATVFRGRMSMKEVDEQMLAIQSKNSSYFVEWIPNNVKVAVCDIPPRGLKMSSTFIGNSTAIQELFKRISEQFTAMFRRKAFLHWYTGEGMDEMEFTEAESNMNDLVSEYQQYQDATAEEEGEMYEDDEEESEAQGPK
B9: Tryptophanyl-tRNA synthetase, cytoplasmic: human brain protein (protein, UniProt P23381 2-471, looked up)
Tryptophan--tRNA ligase, …: PNSEPASLLELFNSIATQGELVRSLKAGNASKDEIDSAVKMLVSLKMSYKAAAGEDYKADCPPGNPAPTSNHGPDATEAEEDFVDPWTVQTSSAKGIDYDKLIVRFGSSKIDKELINRIERATGQRPHHFLRRGIFFSHRDMNQVLDAYENKKPFYLYTGRGPSSEAMHVGHLIPFIFTKWLQDVFNVPLVIQMTDDEKYLWKDLTLDQAYSYAVENAKDIIACGFDINKTFIFSDLDYMGMSSGFYKNVVKIQKHVTFNQVKGIFGFTDSDCIGKISFPAIQAAPSFSNSFPQIFRDRTDIQCLIPCAIDQDPYFRMTRDVAPRIGYPKPALLHSTFFPALQGAQTKMSASDPNSSIFLTDTAKQIKTKVNKHAFSGGRDTIEEHRQFGGNCDVDVSFMYLTFFLEDDDKLEQIRKDYTSGAMLTGELKKALIEVLQPLIAEHQARRKEVTDEIVKEFMTPRKLSFDFQ
B10: ATP synthase subunit alpha, mitochondrial: human brain protein (protein, UniProt P25705 44-553, looked up)
ATP synthase F(1) complex …: QKTGTAEMSSILEERILGADTSVDLEETGRVLSIGDGIARVHGLRNVQAEEMVEFSSGLKGMSLNLEPDNVGVVVFGNDKLIKEGDIVKRTGAIVDVPVGEELLGRVVDALGNAIDGKGPIGSKTRRRVGLKAPGIIPRISVREPMQTGIKAVDSLVPIGRGQRELIIGDRQTGKTSIAIDTIINQKRFNDGSDEKKKLYCIYVAIGQKRSTVAQLVKRLTDADAMKYTIVVSATASDAAPLQYLAPYSGCSMGEYFRDNGKHALIIYDDLSKQAVAYRQMSLLLRRPPGREAYPGDVFYLHSRLLERAAKMNDAFGGGSLTALPVIETQAGDVSAYIPTNVISITDGQIFLETELFYKGIRPAINVGLSVSRVGSAAQTRAMKQVAGTMKLELAQYREVAAFAQFGSDLDAATQQLLSRGVRLTELLKQGQYSPMAIEEQVAVIYAGVRGYLDKLEPSKITKFENAFLSHVVSQHQALLGTIRADGKISEQSDAKLKEIVTNFLAGFEA
B11: Endophilin-A1: human brain protein (protein, UniProt Q99962 1-352, looked up)
Endophilin-A1: MSVAGLKKQFHKATQKVSEKVGGAEGTKLDDDFKEMERKVDVTSRAVMEIMTKTIEYLQPNPASRAKLSMINTMSKIRGQEKGPGYPQAEALLAEAMLKFGRELGDDCNFGPALGEVGEAMRELSEVKDSLDIEVKQNFIDPLQNLHDKDLREIQHHLKKLEGRRLDFDYKKKRQGKIPDEELRQALEKFDESKEIAESSMFNLLEMDIEQVSQLSALVQAQLEYHKQAVQILQQVTVRLEERIRQASSQPRREYQPKPRMSLEFPTGDSTQPNGGLSHTGTPKPSGVQMDQPCCRALYDFEPENEGELGFKEGDIITLTNQIDENWYEGMLHGHSGFFPINYVEILVALPH
B12: Acetyl-CoA acetyltransferase, mitochondrial: human brain protein (protein, UniProt P24752 34-427, looked up)
Acetyl-CoA acetyltransferase, …: VSKPTLKEVVIVSATRTPIGSFLGSLSLLPATKLGSIAIQGAIEKAGIPKEEVKEAYMGNVLQGGEGQAPTRQAVLGAGLPISTPCTTINKVCASGMKAIMMASQSLMCGHQDVMVAGGMESMSNVPYVMNRGSTPYGGVKLEDLIVKDGLTDVYNKIHMGSCAENTAKKLNIARNEQDAYAINSYTRSKAAWEAGKFGNEVIPVTVTVKGQPDVVVKEDEEYKRVDFSKVPKLKTVFQKENGTVTAANASTLNDGAAALVLMTADAAKRLNVTPLARIVAFADAAVEPIDFPIAPVYAASMVLKDVGLKKEDIAMWEVNEAFSLVVLANIKMLEIDPQKVNINGGAVSLGHPIGMSGARIVGHLTHALKQGEYGLASICNGGGGASAMLIQKL

What follows are molecules tested on oligomeric versus monomeric Aβ1-42 (Aβ1-42-biotin bait) (assay: Affinity capture interactome Experiment III (oAβ1-42-biotin vs mAβ1-42-biotin)). Settings: oligomeric versus monomeric bait; human frontal lobe digitonin extract; TMT; pH 8.0, 4°C overnight.
For B1, the “Experiment III oAβ1-42-B/mAβ1-42-B Ratio” value was 1.39.
In the case of B2, the “Experiment III oAβ1-42-B/mAβ1-42-B Ratio” value is reported as 1.54.
B3 was tested, and the “Experiment III oAβ1-42-B/mAβ1-42-B Ratio” value was 2.58.
B4 was tested, and the “Experiment III oAβ1-42-B/mAβ1-42-B Ratio” value was 1.73.
For B5, the “Experiment III oAβ1-42-B/mAβ1-42-B Ratio” value was 1.82.
In the case of B6, the “Experiment III oAβ1-42-B/mAβ1-42-B Ratio” value is reported as 2.40.
With B7 the “Experiment III oAβ1-42-B/mAβ1-42-B Ratio” value was 4.21.
For B8, the “Experiment III oAβ1-42-B/mAβ1-42-B Ratio” value was 2.04.
B9 was tested, and the “Experiment III oAβ1-42-B/mAβ1-42-B Ratio” value was 3.97.
In the case of B10, the “Experiment III oAβ1-42-B/mAβ1-42-B Ratio” value is reported as 4.88.
B11 was tested, and the “Experiment III oAβ1-42-B/mAβ1-42-B Ratio” value was 1.07.
In the case of B12, the “Experiment III oAβ1-42-B/mAβ1-42-B Ratio” value is reported as 2.45.

What follows are molecules tested on oligomeric Aβ1-42 (oAβ1-42-biotin bait) (assay: Affinity capture interactome Experiment II (C-terminally tethered oAβ1-42-biotin vs biotin)). Settings: enrichment relative to biotin-only negative control; human frontal lobe digitonin extract; TMT; pH 8.0, 4°C overnight.
With B1 the “Experiment II oAβ1-42-B/B Ratio” value was 1.87.
With B2 the “Experiment II oAβ1-42-B/B Ratio” value was 1.42.
For B4, the “Experiment II oAβ1-42-B/B Ratio” value was 1.38.
With B6 the “Experiment II oAβ1-42-B/B Ratio” value was 1.51.
For B7, the “Experiment II oAβ1-42-B/B Ratio” value was 2.27.
For B8, the “Experiment II oAβ1-42-B/B Ratio” value was 1.18.
B10 was tested, and the “Experiment II oAβ1-42-B/B Ratio” value was 2.16.
In the case of B11, the “Experiment II oAβ1-42-B/B Ratio” value is reported as 1.28.
With B12 the “Experiment II oAβ1-42-B/B Ratio” value was 2.64.
